We go through one protein from patent US20070107085.

This data set deals with T1, Gly-Asp-Asp-Asp-Asp-Lys-β-naphthylamide.
T1 chain: GDDDDK

B1: CBM-enterokinase produced transiently in lettuce and purified on cellulose (protein)
chain: MVATAKYGTPVIDGEIDEIWNTTEEIETKAVAMGSLDKNATAKVRVLWDENYLYVLAIVKDPVLNKDNSNPWEQDSVEIFIDENNHKTGYYEDDDAQFRVNYMNEQTFGTGGSPARFKTAVKLIEGGYIVEAAIKWKTIKPTPNTVIGFNIQVNDANEKGQRVGIISWSDPTNNSWRDPSKFGNLRLIK
Take B1: the Enterokinase activity was 442,7 cps/min/µg.
